From patent publication US20250277023A1 come the findings set out here.

In the test the target is CHO-PD-L1 (UniProt Q9NZQ7). The test is described as follows: FACS binding; Fig. 23.
CHO-PD-L1, sequence (Q9NZQ7 19-290): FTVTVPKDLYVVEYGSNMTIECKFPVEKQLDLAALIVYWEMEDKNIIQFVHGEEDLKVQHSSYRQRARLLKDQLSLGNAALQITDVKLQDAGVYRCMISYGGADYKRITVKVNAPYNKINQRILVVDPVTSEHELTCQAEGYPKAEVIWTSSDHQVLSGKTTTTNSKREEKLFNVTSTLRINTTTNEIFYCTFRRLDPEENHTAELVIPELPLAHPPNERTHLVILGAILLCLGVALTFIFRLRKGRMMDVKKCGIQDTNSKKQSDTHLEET

Regarding R0514(avelumab-mIgG2a), the EC50 was 0.494 nM. That is a sub-nanomolar value.
